Assay results from patent US20230121197A1, “ANTIBODIES SPECIFICALLY BINDING THE CARBOXYMETHYLATED CATALYTIC SUBUNIT OF PROTEIN PHOSPHATASE 2A” (Medizinische Universität Wien, priority 2020, published 2023).

Columns and labels:
[1] = target: PP2Ac C-terminal peptide L309, ac-…-OH (unmodified) (human); test: ELISA, peptide coated at 2 µg/ml, antibody 1 µg/ml
[2] = target: PP2Ac C-terminal peptide meL309, ac-…-CH3 (α-carboxymethylated) (human); test: ELISA, peptide coated at 2 µg/ml, antibody 1 µg/ml, values normalized to L309, N=6
[3] = target: PP2Ac C-terminal peptide pT304-L309, ac-HVTRRpTPDYFL-OH (human); test: as above
[4] = target: PP2Ac C-terminal peptide pT304-meL309, ac-HVTRRpTPDYFL-CH3 (human); test: as above
[5] = target: PP2Ac C-terminal peptide pY307-meL309, ac-HVTRRTPDpYFL-CH3 (human); test: as above
[6] = target: T1, C-terminal PP2Ac peptides L309, Y307F, pY307, meL309 (Homo sapiens, UniProt P67775); test: ELISA with CGEPHVTRRTPDYFL peptides free or linked to BSA (scFv and recombinant 7C10-C5); assay type: binding; settings: for recognition of meL309 versus non-carboxymethylated peptides: peptides free or linked to BSA
T1 construct: coated with C-terminal PP2Ac peptides either free or linked to BSA; BSA (carrier)
Description: Nunc Medisorp 96-well ELISA flat-bottom plates were coated with C-terminal PP2Ac peptides either free or linked to BSA. Specifically, the peptides were: unmodified L309 (CGEPHVTRRTPDYFL) (SEQ ID NO:49), Y307F (CGEPHVTRRTPDFFL) (SEQ ID NO:50), pY307 (CGEPHVTRRTPDpYFL) (SEQ ID NO:51) or carboxymethylated meL309 (CGEPHVTRRTPDYFL-CH3) (SEQ ID NO:49), on the ELISA plate at 8 μg/ml in TBS (free) or 1 μg/ml in TBS (linked to BSA) at 4° C. overnight. After washing twice with TBS, the wells were incubated with 2% BSA in TBS for 1 h at RT. After washing once with TBS, the wells were incubated with single clone hybridoma cell culture supernatant, clone 7C10-C5 1:50 (7C10 X63), recombinant single chain variable fragment of antibody 7C10-C5, undiluted (7C10 scFvs), or recombinant bivalent single chain variable fragment of antibody 7C10-C5, undiluted (7C10 bi-scFvs). After washing 3× with TBS, wells incubated with recombinant antibodies were incubated with monoclonal antibody 16B12, 1:10000 (recognizing the hemagglutinin tag on the recombinant antibody) in 1% BSA TBS 1 h at room temperature. After washing 3× in TBS, incubation with anti-mouse-HRP coupled secondary antibody for 1 h at RT was performed. Bound antibodies were detected by colorimetric reaction with 3,3′,5,5′-Tetramethylbenzidine as substrate, and absorbance was measured at 450 nm. Values were normalized to meL309 which was arbitrarily set to 1. Average and standard deviation of N=3 experiments are shown.
Nunc Medisorp 96-well ELISA flat-bottom plates were coated with peptides either free or linked to BSA, L309 (CGEPHVTRRTPDYFL) (SEQ ID NO:49) or meL309 (CGEPHVTRRTPDYFL-CH3) (SEQ ID NO:49), on the ELISA plate at 0.5 μg/ml in TBS (free) or […] in TBS (linked to BSA) at 4° C. over night. After washing twice with TBS, the wells were incubated with 2% BSA in TBS for 1 h at RT. After washing once with TBS, the wells were incubated with single clone hybridoma cell culture supernatant, clone 7C10-C5 1:50 (7C10 X63), or recombinant antibody 7C10-C5 undiluted (rec 7C10). After washing 3× with TBS, incubation with anti-mouse-HRP coupled secondary antibody for 1 h at RT was performed. Bound antibodies were detected by colorimetric reaction with 3,3′,5,5′-Tetramethylbenzidine as substrate, and absorbance was measured at 450 nm. Values were normalized to meL309 incubated with 7C10 X63, which was arbitrarily set to 1. Average and standard deviation of N=3 experiments are shown (FIG. 30).

[7] = target: PP2Ac peptides L309, Y307F, pY307, meL309 crosslinked to BSA (Homo sapiens, UniProt P67775); test: Western blot of BSA crosslinked PP2Ac peptides (scFv 7C10-C5); assay type: binding; settings: 100 ng BSA crosslinked peptides
Description: 100 ng of BSA crosslinked with peptides (L309: CGEPHVTRRTPDYFL (SEQ ID NO:49), Y307F: CGEPHVTRRTPDFFL (SEQ ID NO.50), pY307: CGEPHVTRRTPDpYFL (SEQ ID NO:51) or meL309: CGEPHVTRRTPDYFL-CH3) (SEQ ID NO:49) was separated by 10% SDS-PAGE and transferred to nitrocellulose membrane (0.2 μm, GE Healthcare). Of note, the Y307F peptide cannot be phosphorylated at position 307 due to the presence of a phenylalanine. The membranes were blocked in 3% non-fatty dry milk (NFDM) in TBS-Tween for 1 h at RT and incubated with single clone hybridoma cell culture supernatant, clone 7C10-C5 diluted 1:100 in 0.5% NFDM in TBS-T (7C10 X63), recombinant single chain variable fragment of antibody 7C10-C5, undiluted (7C10 scFvs), recombinant bivalent single chain variable fragment 7C10-C5, undiluted (7C10 bi-scFvs) or single clone hybridoma cell culture supernatant, clone 1D7 (binding to non-carboxymethylated PP2Ac) 1:100 in 0.5% NFDM in TBS-T o/n at 4° C. After washing 3×5 min in TBS-T, blots incubated with recombinant antibodies were incubated with mouse anti-HA monoclonal antibody 16B12 (recognizing the hemagglutinin (HA) tag on the recombinant antibody), 1:10000 in 0.5% NFDM in TBS-T 2 h at room temperature. After washing 3×5 min in TBS-T, incubation with anti-mouse-HRP coupled secondary antibody for 1 h at RT and 3×10 min washes in TBS-T was performed. […] Signals were detected by exposure of X-ray films. […]

Molecule: mouse monoclonal antibody 4B7 (SCBT, sc-13601, lot 0716)
- fold higher ELISA signal intensity than with the α-carboxymethylated counterpart (meL309) [1]: 8 fold
- fold-change of ELISA signal, L309 over meL309 [2]: 8.27 fold
- fold-change of ELISA signal, L309 over pT304-L309 [3]: 1.75 fold
- fold-change of ELISA signal, pT304-L309 over pT304-meL309 [4]: 7.39 fold
- fold-change of ELISA signal, pY307-L309 over pY307-meL309 [5]: 8.27 fold

B1: monovalent scFv 7C10-C5: recombinant monovalent single chain variable fragment of antibody 7C10-C5 (SEQ ID NO:42) (protein)
scFv: MDMRVPAQLLGLLLLWLSGARCDVLMTQTPLSLPVSLGDQASISCRSSQSIVHSNGNTYLEWYLQKPGQSPKLLIYKVSNRFSGVPDRFSGSGSGTDFTLKINRVEAEDLGVYYCFQGSHVPWTFGGGTKLEIKSSGGGGSGGGGGGSSRSSLDVQLQESGPGLVKPSQSLSLTCSVTGYSITSGYYWNWIRQFPGNKLEWMGYISYDGSNNYNPSLKNRISITRDTSKNQFFLKLNSVTTEDTATYYCAGRFAYWGQGTLVTVSAAKTTPPSVTSGQAGQHHHHHHGAYPYDVPDYAS
modifications: recombinant monovalent scFv antibody
- recognition of meL309 versus non-carboxymethylated peptides [6]: specifically recognized the carboxymethylated meL309 peptide, but none of the non-carboxymethylated peptides
- recognition of meL309 versus non-carboxymethylated peptides [7]: specifically recognized the carboxymethylated meL309 peptide, but none of the non-carboxymethylated peptides

B2: bivalent scFv 7C10-C5: recombinant bivalent single chain variable fragment of antibody 7C10-C5 (SEQ ID NO:44) (protein)
scFv: MDMRVPAQLLGLLLLWLSGARCDVLMTQTPLSLPVSLGDQASISCRSSQSIVHSNGNTYLEWYLQKPGQSPKLLIYKVSNRFSGVPDRFSGSGSGTDFTLKINRVEAEDLGVYYCFQGSHVPWTFGGGTKLEIKSSGGGGSGGGGGGSSRSSLDVQLQESGPGLVKPSQSLSLTCSVTGYSITSGYYWNWIRQFPGNKLEWMGYISYDGSNNYNPSLKNRISITRDTSKNQFFLKLNSVTTEDTATYYCAGRFAYWGQGTLVTVSAAKTTPPSVGSGSGSGSGSGSGSGSGSGSGSGSGSGSGSDVLMTQTPLSLPVSLGDQASISCRSSQSIVHSNGNTYLEWYLQKPGQSPKLLIYKVSNRFSGVPDRFSGSGSGTDFTLKINRVEAEDLGVYYCFQGSHVPWTFGGGTKLEIKSSGGGGSGGGGGGSSRSSLDVQLQESGPGLVKPSQSLSLTCSVTGYSITSGYYWNWIRQFPGNKLEWMGYISYDGSNNYNPSLKNRISITRDTSKNQFFLKLNSVTTEDTATYYCAGRFAYWGQGTLVTVSAAKTTPPSVTSGQAGQHHHHHHGAYPYDVPDYAS
modifications: recombinant bivalent scFv antibody
- binding to meL309 peptide, bivalent versus monovalent scFv [6]: bound stronger to the meL309 peptide than the monovalent scFv
- recognition of meL309 versus non-carboxymethylated peptides [6]: specifically recognized the carboxymethylated meL309 peptide, but none of the non-carboxymethylated peptides
- recognition of meL309 versus non-carboxymethylated peptides [7]: specifically recognized the carboxymethylated meL309 peptide, but none of the non-carboxymethylated peptides
